In patent publication US20170218055A1 (UNIVERSITY OF CHICAGO, published 2017):

T1: peptide H1 (helix 1 of the EKKAA IgBD)
T1 construct: Synthetic linear peptide, free NH2 and COOH ends as printed
T1 peptide: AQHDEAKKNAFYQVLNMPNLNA

T2: peptide H2 (helix 2 of the EKKAA IgBD)
T2 construct: Synthetic linear peptide
T2 peptide: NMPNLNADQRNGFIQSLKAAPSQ

T3: peptide H3 (helix 3 of the EKKAA IgBD)
T3 construct: Synthetic linear peptide
T3 peptide: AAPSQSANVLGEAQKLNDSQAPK

B1: mAb 5A10 (antibody, V domains shown)
VH: EVKLVESGGGLVKPGGSLKLSCAASGFAFSNYDMSWVRQTPEKRLEWVATISSGGTYPYYPDSVKGRFTISRDNAKNTLYLQLSSLRSEDTALYYCARGGFLITTRDYYAMDYWGQGTSVTVSS
VL: TIVLTQSPAIMSASPGEKVTMTCSASSSVSYMYWYQQKPGSSPRLLIYDTSNLASGVPVRFSGSGSGTSYSLTISRMEAEDAATYYCQQWSSYPPTFGGGTKLEIK
notes: Mouse IgG1 hybridoma mAb raised against SpAKKAA; also called 5A10-HRP; HRP-5A10
B2: mAb 2F2 (antibody, V domains shown)
VH: VKLVESGGDLVKPGGSLKLSCAASRFTFSSYVMSWVRQTPEKRLEWVASIGSGGTTYYPDTVKGRFTISRDNARNILYLQMSSLRSDDTAMYYCTRGRGYGFAWYFDVWGAGTTVTVSS
VL: B1 VL
notes: Mouse IgG2b hybridoma mAb
B3: mAb 3D11 (antibody, V domains shown)
VH: QSGPELMKPGASVKISCKASGYSFTSYYMHWVKQSHGKSLEWIGYIDPFNGGTSYNQKFKGKATLTVDKSSSTAYMHLSSLTSEDSAVYYCARYGYDGTFYAMDYWGQGTSVTVSS
VL: RIVLTQSPAITAASLGQKVTITCSASSSVSYMHWYQQKSGTSPKPWIYEISKLASGVPARFSGSGSGTSYSLTISSMEAEDAAIYYCQQWSYPFTFGSGTKLEIK
notes: Mouse IgG2b hybridoma mAb raised against SpAKKAA; also called 3D11-HRP; HRP-3D11
B4: mAb 6D11 (antibody, V domains shown)
VH: QVQLQQSGAELVRPGTSVKVSCKASGNAFTNYLIEWIKQRPGQGLEWIGVINPGSGITNYNEKFKGKATLTADKSSNTAYMQLSSLSSDDSAVYFCSGSANWFAYWGQGTLVTVSA
VL: DIVLTQSPASLAVSLGQRASISCRASESVEYSGASLMQWYQHKPGQPPKLLIYAASNVESGVPVRFSGSGSGTDFSLNIHPVEEDDIAMYFCQQSRKVPSTFGGGTKLEIK
notes: Mouse IgG2a hybridoma mAb
B5: mAb 7E2 (antibody, V domains shown)
VH: QIQLVQSGPELKKPGETVKISCKASGYTFTDYSVHWVKQAPGKGLKWMAWINTATGEPTFADDFKGRFAFSLETSARTAYLQINNLKNEDTATYFCAPQLTGPFAYWGHGTLVTVSA
VL: DIQMTQSPASLSASVGETVTITCRASENIHNYLAWYQQKQGKSPQLLVYNAKTLTDGVPSRFSGSGSGTQFSLKINSLQAGDFGSYYCQHSWSIPYTFGGGTRLQIR
notes: Mouse IgG1 hybridoma mAb
B6: mAb 3A6 (antibody, V domains shown)
VH: QIQLVQSGPELKKPGETVKISCKASGYNFTDYSMHWVKQAPGKGLKWVGWINTETAESTYADDFKGRFAFSLETSASTAYLQINSLKDEDTATFFCAHFDCWGQGTTLTVSS
VL: DVVMTQISLSLPVTLGDQASISCRASQSLVHSNGNTYLNWYLQKPGQSPKLLIHKVSNRFSGVPDRFSGSGSGTDFTLKISRVEAEDLGVYFCSQITYVPWTFGGGTKLEIK
notes: Mouse IgG1 hybridoma mAb
B7: mAb 8E2 (antibody, V domains shown)
VH: KVQLQQSGAGLVKPGASVKLSCKASGYTFTEYSIHWVKQSSGQGLEWIGWFYPGSGYIKYNEKFKDKATLTADKSSSTVYMEFSRLTSEDSAVYFCARHGYGNYVGYAMDYWGQGTSVTVSS
VL: DIQMTQSPASLSASVGETVTITCRASEIIYSYLAWYQQKQGKSPQLLVYFAKTLAEGVPSRFSGSGSGTQFSLKINSLQPEDFGIYYCQHHYGTPYTFGGGTKLEIK
notes: Mouse IgG1 hybridoma mAb

Experiments:
[1] = molecular target: T4, BKKAA immunoglobulin binding domain of SpAKKAA (Staphylococcus aureus, UniProt A0A0H3K686 214-265); assay: ELISA, antigen-coated plate, mAb titrated
T4 construct: not shown: N-terminal six histidyl tag (pET15b)

[2] = molecular target: T5, SpAKKAA (non-toxigenic staphylococcal protein A variant) (Staphylococcus aureus, UniProt A0A0H3K686 37-327); assay: ELISA, antigen-coated plate, mAb titrated
T5 construct: The four substitutions are made in each of the five domains (20 in all); Purified from E. coli; also called non-toxigenic protein A

[3] = molecular target: T6, CKKAA immunoglobulin binding domain of SpAKKAA (Staphylococcus aureus, UniProt A0A0H3K686 214-323); assay: ELISA, antigen-coated plate, mAb titrated
T6 construct: the construct is said to span residues 234-291 of mature SpA and its limits may differ from the entry; not shown: N-terminal six histidyl tag (pET15b)

[4] = molecular target: T7, DKKAA immunoglobulin binding domain of SpAKKAA (Staphylococcus aureus, UniProt A0A0H3K686 96-149); assay: ELISA, antigen-coated plate, mAb titrated
T7 construct: the construct is said to span residues 57-117 of mature SpA (61 residues), so its limits differ from the entry; not shown: N-terminal six histidyl tag (pET15b)

[5] = molecular target: T8, AKKAA immunoglobulin binding domain of SpAKKAA (Staphylococcus aureus, UniProt A0A0H3K686 156-207); assay: ELISA, antigen-coated plate, mAb titrated
T8 construct: the construct is said to span residues 118-175 of mature SpA and its limits may differ from the entry; not shown: N-terminal six histidyl tag (pET15b)

[6] = molecular target: T9, EKKAA immunoglobulin binding domain of SpAKKAA (Staphylococcus aureus, UniProt A0A0H3K686 37-92); assay: ELISA, antigen-coated plate, mAb titrated
T9 construct: also called SpA-EKKAA; E domain; not shown: N-terminal six histidyl tag (pET15b)

[7] = molecular target: T1, peptide H1 (helix 1 of the EKKAA IgBD); assay: ELISA, antigen-coated plate, mAb titrated
[8] = molecular target: T9, EKKAA immunoglobulin binding domain of …; assay: ELISA, antigen-coated plate
[9] = molecular target: T2, peptide H2 (helix 2 of the EKKAA IgBD); assay: ELISA, antigen-coated plate, mAb titrated
[10] = molecular target: T10, peptide H1+2 (helices 1+2 of the EKKAA IgBD); assay: ELISA, antigen-coated plate, mAb titrated
T10 construct: Synthetic linear peptide; also called helix 1+2 peptide

[11] = molecular target: T3, peptide H3 (helix 3 of the EKKAA IgBD); assay: ELISA, antigen-coated plate, mAb titrated

Row | Binder | Ka [1] | Ka [2] | Ka [3] | Ka [4] | Ka [5] | Ka [6] | Ka [7] | binding result [8] | Ka [9] | Ka [10] | Ka [11]
1 | B1 | 7.03e+09 M⁻¹ | 8.47e+09 M⁻¹ | 1.01e+10 M⁻¹ | 8.19e+09 M⁻¹ | 8.08e+09 M⁻¹ | 9.4e+09 M⁻¹ | – | – | – | – | –
2 | B2 | 1.13e+09 M⁻¹ | 1.9e+09 M⁻¹ | 1.8e+09 M⁻¹ | 1.76e+09 M⁻¹ | 1.37e+09 M⁻¹ | 1.72e+09 M⁻¹ | – | – | – | – | –
3 | B3 | 3.92e+09 M⁻¹ | 3.93e+09 M⁻¹ | 3.6e+09 M⁻¹ | – | 8.7e+08 M⁻¹ | – | 2e+07 M⁻¹ | no binding | – | – | –
4 | B4 | – | – | 4.75e+09 M⁻¹ | 2.42e+09 M⁻¹ | – | – | 2.7e+08 M⁻¹ | – | 1e+07 M⁻¹ | 5.22e+09 M⁻¹ | –
5 | B5 | 3.2e+08 M⁻¹ | 3.1e+08 M⁻¹ | 2.8e+08 M⁻¹ | 3e+08 M⁻¹ | 3.6e+08 M⁻¹ | 2.9e+08 M⁻¹ | – | – | – | – | –
6 | B6 | 6.4e+08 M⁻¹ | 1.37e+09 M⁻¹ | 4e+07 M⁻¹ | – | 2.05e+09 M⁻¹ | 1.38e+09 M⁻¹ | 6e+07 M⁻¹ | – | – | 4.4e+08 M⁻¹ | 1e+07 M⁻¹
7 | B7 | 1.14e+09 M⁻¹ | 1.56e+09 M⁻¹ | 1.26e+09 M⁻¹ | 1.51e+09 M⁻¹ | 1.52e+09 M⁻¹ | 1.4e+09 M⁻¹ | – | – | – | 2.9e+08 M⁻¹ | –
